Sequences and labels used below:
B1: Pistol ribozyme (parent)
chain: GGGUCGUUGUUCCAUAAUCGCGUGGAUAUGGCACGCAAGUUUCUACCGGGCACCGUAAAUGUCCGACUGGAGCCGUUCGGGCGGCUAUAAACAGACCUCAGGCCCGAAGCGUGGCGGCACCUGCCGCCGGUGGUAAAAAAGAUCGGAAGAGCACACGUCU

The series covers variants of B1. Put plainly: aptazyme ON/OFF ratio, guanine; higher = stronger switching; co-transcriptional cleavage with and without guanine.
In the case of GGGUCGCCGAUGGAUAAUCGCGUGGAUAUGGCACGCAAGUUUCUACCGGGCACCGUAAAUGUCCGACUGGAGCCGUUCGGGCGGCUAUAAACAGACCUCAGGCCCGAAGCGUGGCGGCACCUGCCGCCGGUGGUAAAAAAGAUCGGAAGAGCACACGUCU [U7C U8C U10A C12G C13G], the “aptazyme ON/OFF ratio” value came to 1.12.

As for GGGUCGGUAUAGCAUAAUCGCGUGGAUAUGGCACGCAAGUUUCUACCGGGCACCGUAAAUGUCCGACUGGAGCCGUUCGGGCGGCUAUAAACAGACCUCAGGCCCGAAGCGUGGCGGCACCUGCCGCCGGUGGUAAAAAAGAUCGGAAGAGCACACGUCU [U7G G9A U11A C12G], the “aptazyme ON/OFF ratio” value amounted to 1.21. Regarding GGGUCGCGAGGGAAUAAUCGCGUGGAUAUGGCACGCAAGUUUCUACCGGGCACCGUAAAUGUCCGACUGGAGCCGUUCGGGCGGCUAUAAACAGACCUCAGGCCCGAAGCGUGGCGGCACCUGCCGCCGGUGGUAAAAAAGAUCGGAAGAGCACACGUCU [U7C U8G G9A U10G U11G C12G C13A], the “aptazyme ON/OFF ratio” value worked out at 1.42. For the variant GGGUCGGUAGCACAUAAUCGCGUGGAUAUGGCACGCAAGUUUCUACCGGGCACCGUAAAUGUCCGACUGGAGCCGUUCGGGCGGCUAUAAACAGACCUCAGGCCCGAAGCGUGGCGGCACCUGCCGCCGGUGGUAAAAAAGAUCGGAAGAGCACACGUCU [U7G G9A U10G U11C C12A], the “aptazyme ON/OFF ratio” value was found to be 1.12. As to GGGUCGGUGAAUCAUAAUCGCGUGGAUAUGGCACGCAAGUUUCUACCGGGCACCGUAAAUGUCCGACUGGAGCCGUUCGGGCGGCUAUAAACAGACCUCAGGCCCGAAGCGUGGCGGCACCUGCCGCCGGUGGUAAAAAAGAUCGGAAGAGCACACGUCU [U7G U10A U11A C12U], the “aptazyme ON/OFF ratio” value amounted to 1.16.

Turning to GGGUCGUGCAUAGAUAAUCGCGUGGAUAUGGCACGCAAGUUUCUACCGGGCACCGUAAAUGUCCGACUGGAGCCGUUCGGGCGGCUAUAAACAGACCUCAGGCCCGAAGCGUGGCGGCACCUGCCGCCGGUGGUAAAAAAGAUCGGAAGAGCACACGUCU [U8G G9C U10A C12A C13G], the “aptazyme ON/OFF ratio” value is 1.12. Regarding GGGUCGCAUCAGUAUAAUCGCGUGGAUAUGGCACGCAAGUUUCUACCGGGCACCGUAAAUGUCCGACUGGAGCCGUUCGGGCGGCUAUAAACAGACCUCAGGCCCGAAGCGUGGCGGCACCUGCCGCCGGUGGUAAAAAAGAUCGGAAGAGCACACGUCU [U7C U8A G9U U10C U11A C12G C13U], the “aptazyme ON/OFF ratio” value is 1.13. Next, GGGUCGGGCUGGGAUAAUCGCGUGGAUAUGGCACGCAAGUUUCUACCGGGCACCGUAAAUGUCCGACUGGAGCCGUUCGGGCGGCUAUAAACAGACCUCAGGCCCGAAGCGUGGCGGCACCUGCCGCCGGUGGUAAAAAAGAUCGGAAGAGCACACGUCU [U7G U8G G9C U11G C12G C13G]: 1.24.

Regarding GGGUCGGUCUCUAAUAAUCGCGUGGAUAUGGCACGCAAGUUUCUACCGGGCACCGUAAAUGUCCGACUGGAGCCGUUCGGGCGGCUAUAAACAGACCUCAGGCCCGAAGCGUGGCGGCACCUGCCGCCGGUGGUAAAAAAGAUCGGAAGAGCACACGUCU [U7G G9C U11C C12U C13A], the “aptazyme ON/OFF ratio” value came to 1.37. The figure for GGGUCGUAAGGUAAUAAUCGCGUGGAUAUGGCACGCAAGUUUCUACCGGGCACCGUAAAUGUCCGACUGGAGCCGUUCGGGCGGCUAUAAACAGACCUCAGGCCCGAAGCGUGGCGGCACCUGCCGCCGGUGGUAAAAAAGAUCGGAAGAGCACACGUCU [U8A G9A U10G U11G C12U C13A] is 1.36; for GGGUCGAUUGUUCAUAAUCGCGUGGAUAUGGCACGCAAGUUUCUACCGGGCACCGUAAAUGUCCGACUGGAGCCGUUCGGGCGGCUAUAAACAGACCUCAGGCCCGAAGCGUGGCGGCACCUGCCGCCGGUGGUAAAAAAGAUCGGAAGAGCACACGUCU [U7A G9U U10G C12U] it is 1.43.

GGGUCGCCGGCAGAUAAUCGCGUGGAUAUGGCACGCAAGUUUCUACCGGGCACCGUAAAUGUCCGACUGGAGCCGUUCGGGCGGCUAUAAACAGACCUCAGGCCCGAAGCGUGGCGGCACCUGCCGCCGGUGGUAAAAAAGAUCGGAAGAGCACACGUCU [U7C U8C U10G U11C C12A C13G]: the “aptazyme ON/OFF ratio” value is 1.11. For the variant GGGUCGGCAUUAGAUAAUCGCGUGGAUAUGGCACGCAAGUUUCUACCGGGCACCGUAAAUGUCCGACUGGAGCCGUUCGGGCGGCUAUAAACAGACCUCAGGCCCGAAGCGUGGCGGCACCUGCCGCCGGUGGUAAAAAAGAUCGGAAGAGCACACGUCU [U7G U8C G9A C12A C13G], the “aptazyme ON/OFF ratio” value came to 1.05. Regarding GGGUCGUCCCGUAAUAAUCGCGUGGAUAUGGCACGCAAGUUUCUACCGGGCACCGUAAAUGUCCGACUGGAGCCGUUCGGGCGGCUAUAAACAGACCUCAGGCCCGAAGCGUGGCGGCACCUGCCGCCGGUGGUAAAAAAGAUCGGAAGAGCACACGUCU [U8C G9C U10C U11G C12U C13A], the “aptazyme ON/OFF ratio” value is 1.05. Next, GGGUCGGGUAGUUAUAAUCGCGUGGAUAUGGCACGCAAGUUUCUACCGGGCACCGUAAAUGUCCGACUGGAGCCGUUCGGGCGGCUAUAAACAGACCUCAGGCCCGAAGCGUGGCGGCACCUGCCGCCGGUGGUAAAAAAGAUCGGAAGAGCACACGUCU [U7G U8G G9U U10A U11G C12U C13U]: 1.08. On to GGGUCGUUGGGCCAUAAUCGCGUGGAUAUGGCACGCAAGUUUCUACCGGGCACCGUAAAUGUCCGACUGGAGCCGUUCGGGCGGCUAUAAACAGACCUCAGGCCCGAAGCGUGGCGGCACCUGCCGCCGGUGGUAAAAAAGAUCGGAAGAGCACACGUCU [U10G U11G], for which the “aptazyme ON/OFF ratio” value was 1.22. In the case of GGGUCGGGAAACCAUAAUCGCGUGGAUAUGGCACGCAAGUUUCUACCGGGCACCGUAAAUGUCCGACUGGAGCCGUUCGGGCGGCUAUAAACAGACCUCAGGCCCGAAGCGUGGCGGCACCUGCCGCCGGUGGUAAAAAAGAUCGGAAGAGCACACGUCU [U7G U8G G9A U10A U11A], the “aptazyme ON/OFF ratio” value was determined as 1.53. In the case of GGGUCGAAUUACAAUAAUCGCGUGGAUAUGGCACGCAAGUUUCUACCGGGCACCGUAAAUGUCCGACUGGAGCCGUUCGGGCGGCUAUAAACAGACCUCAGGCCCGAAGCGUGGCGGCACCUGCCGCCGGUGGUAAAAAAGAUCGGAAGAGCACACGUCU [U7A U8A G9U U11A C13A], the “aptazyme ON/OFF ratio” value was 1.19.

Values taken from the RNAGym collection of RNA variant scans (doi:10.1021/acssynbio.7b00057).
